Experimental data reported in patent US20240293544A1 (KIROMIC BIOPHARMA, published 2024).

How the values were obtained:
[1] = target: T1, Mesothelin Isoform 2 (IsoMSLN), antigen of the ELISA (human, UniProt Q13421 37-598); assay: ELISA
T1 construct: also called MSLN Isoform 2; mesothelin isoform-2 polypeptide

[2] = target: T2, Mesothelin (MSLN) Isoform 1, antigen of the ELISA (human, UniProt Q13421 296-598, limits assumed); assay: ELISA
T2 construct: also called Mesothelin canonical polypeptide
T2 sequence (Q13421 other isoform, or with tags, fused parts or gaps limits assumed): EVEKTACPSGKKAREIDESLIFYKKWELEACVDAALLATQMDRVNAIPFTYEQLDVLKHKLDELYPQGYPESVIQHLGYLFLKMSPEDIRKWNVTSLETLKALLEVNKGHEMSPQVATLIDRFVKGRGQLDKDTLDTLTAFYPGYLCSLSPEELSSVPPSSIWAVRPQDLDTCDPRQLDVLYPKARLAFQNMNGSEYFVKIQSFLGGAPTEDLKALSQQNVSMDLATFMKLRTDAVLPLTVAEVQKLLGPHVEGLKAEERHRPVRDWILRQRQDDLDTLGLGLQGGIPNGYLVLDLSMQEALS

T1 sequence (Q13421 37-606 limits assumed, form in doubt): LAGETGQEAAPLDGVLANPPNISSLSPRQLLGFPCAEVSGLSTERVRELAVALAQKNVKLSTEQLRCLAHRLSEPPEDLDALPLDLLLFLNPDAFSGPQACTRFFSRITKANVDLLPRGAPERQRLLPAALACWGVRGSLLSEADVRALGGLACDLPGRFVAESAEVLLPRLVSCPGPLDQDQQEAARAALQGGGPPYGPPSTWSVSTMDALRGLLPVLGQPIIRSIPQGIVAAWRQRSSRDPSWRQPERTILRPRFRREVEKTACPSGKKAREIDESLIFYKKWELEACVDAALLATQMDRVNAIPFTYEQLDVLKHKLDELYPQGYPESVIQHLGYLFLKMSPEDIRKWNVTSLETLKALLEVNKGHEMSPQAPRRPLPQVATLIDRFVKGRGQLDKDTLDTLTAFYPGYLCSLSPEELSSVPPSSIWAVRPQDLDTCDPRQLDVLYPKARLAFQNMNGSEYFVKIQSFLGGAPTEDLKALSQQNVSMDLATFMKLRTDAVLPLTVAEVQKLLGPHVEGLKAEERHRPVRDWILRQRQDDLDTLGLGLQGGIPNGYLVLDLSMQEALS

B1: 1B6 monoclonal antibody (Binding Molecule A) (antibody, V domains shown)
VH: EVKLVESGGGLVKPGGSLKLSCEASGFTFSRYAMSWVRHTPEKRLAWVASITFGGDPYYPDGLKGRFTISRDNTRNILYLQMNSLRSEDTAMYYCVRHESWFAYWGQGTLVTVSA
VL: DVLMTQTPLSLPVSLGEQVSISCRSSQTIVHTDGNIYLEWYLQNPGQSPRLLIYKISNRFSGVPDRFSGSGSGTDFTLKISRVEAEDLGIYYCFQASHVPYTFGGGTKLEIK
notes: also called 1B6 antibody; 1B6 mAb
- EC50 [1]: 0.073 µg/mL
- binding result [2]: no binding
